Numbering of substitutions follows the chain as printed.
T1: human B7-H4 on cells (human, UniProt Q7Z7D3 25-282)
T1 construct: Full-length human B7-H4 on transfected HEK293T cells (also aAPCs) or endogenous on SK-BR-3 breast cancer cells; also called SK-BR-3 (endogenous human B7-H4)
T1 sequence: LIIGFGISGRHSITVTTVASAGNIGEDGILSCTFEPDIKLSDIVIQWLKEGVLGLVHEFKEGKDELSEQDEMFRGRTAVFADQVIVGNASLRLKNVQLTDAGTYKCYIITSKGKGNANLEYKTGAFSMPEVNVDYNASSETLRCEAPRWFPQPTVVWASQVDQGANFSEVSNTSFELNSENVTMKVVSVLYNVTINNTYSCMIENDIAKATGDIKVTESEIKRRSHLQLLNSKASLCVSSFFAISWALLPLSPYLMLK

T2: rat B7-H4 on cells (rat, UniProt Q501W4 25-257)
T2 construct: Full-length, on transfected HEK293T cells
T2 sequence: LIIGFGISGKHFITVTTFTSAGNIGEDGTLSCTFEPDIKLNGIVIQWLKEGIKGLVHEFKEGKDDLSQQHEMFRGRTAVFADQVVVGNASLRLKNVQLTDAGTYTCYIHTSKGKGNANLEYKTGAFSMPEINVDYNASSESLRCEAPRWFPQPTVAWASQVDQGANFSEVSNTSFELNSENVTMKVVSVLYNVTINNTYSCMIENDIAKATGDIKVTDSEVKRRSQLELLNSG

T3: mouse B7-H4 on cells (mouse, UniProt Q7TSP5 25-257)
T3 construct: Full-length, on transfected HEK293T cells
T3 sequence: T2 sequence with H109R, E228Q

T4: cynomolgus monkey B7-H4 on cells (cynomolgus monkey, UniProt Q7Z7D3 25-282 (human entry))
T4 construct: Full-length, on transfected HEK293T cells
T4 chain: T1 sequence with L53I, F242L, S252A

B1: antibody 15462 (antibody, human IgG1, kappa, V domains shown)
VH: QLQLQESGPGLVKPSETLSLTCTVSGGSISSSSYYWGWIRQPPGKGLEWIGNIYYSGSTYYNPSLKSRVTISVDTSKNQFSLKLSSVTAADTAVYYCAREGSYTTVLNVWGQGTMVTVSS
VL: EIVLTQSPGTLSLSPGERATLSCRASQSVSSSYLAWYQQKPGQAPRLLIYGASSRATGIPDRFSGSGSGTDFTLTISRLEPEDFAVYYCQQAASYPLTFGGGTKVEIKR
notes: human IgG1/kappa
B2: antibody 20506 (antibody, V domains shown)
VH: QLQLQESGPGLVKPSETLSLTCTASGGSISHGGYYWSWIRQHPGKGLEWIGNIYYSGSTYYNPSLKSRVTMSVDTSKNQFSLKLSSVTAADTAVYYCARESSTISADFDLWGRGTLVTVSS
VL: DIQMTQSPSSVSASVGDRVTITCRASQGISRWLAWYQQKPGKAPKLLIYAASSLQSGVPSRFSGSGSGTDFTLTISSLQPEDFATYYCQQAHTFPYTFGGGTKVEIKR
notes: human IgG1/kappa
B3: antibody 15483 (antibody, human IgG1, kappa, V domains shown)
VH: QVQLQESGPGLVKPSQTLSLTCTVSGGSISSGGYYWSWIRQHPGKGLEWIGNIYYSGSTYYNPSLKSRVTISVDTSKNQFSLKLSSVTAADTAVYYCARGLSTIDEAFDPWGQGTLVTVSS
VL: not shown
notes: human IgG1/kappa

How the values were obtained:
[1] = target: T5, recombinant human B7-H4-huIgG1 (human); test: BLI and SPR
T5 construct: the entry begins with the N-terminal leader (MASLG...), no cleavage site is stated; also called B7-H4-hulgGl; B7-H4-extracellular domain (ECD)

human B7-H4 on cells = target: T1, human B7-H4 on cells; test: flow cytometry titration on SK-BR-3 cells (endogenous human B7-H4), GEO MFI against antibody concentration
Procedure: (§1) Following incubation, cells were pelleted, washed and incubated with a secondary labeling antibody and samples were acquired on a flow cytometer. Data was analyzed using the FlowJo software and MFI was plotted vs. antibody concentration. The EC50 cell binding potency was calculated using nonlinear regression curve fit (GraphPad Prism).

rat B7-H4 on cells = target: T2, rat B7-H4 on cells; test: flow cytometry titration on HEK293T cells transfected with rat B7-H4 (293-ratB7-H4), GEO MFI against antibody concentration
Procedure: as §1

mouse B7-H4 on cells = target: T3, mouse B7-H4 on cells; test: flow cytometry titration on HEK293T cells transfected with mouse B7-H4 (293-mouseB7-H4), GEO MFI against antibody concentration
Procedure: as §1

[2] = target: T4, cynomolgus monkey B7-H4 on cells; test: flow cytometry titration on HEK293T cells transfected with cynomolgus monkey B7-H4 (293-cynoB7-H4), GEO MFI against antibody concentration
Procedure: as §1

Row | Binder | binding result [1] | EC50 (read off the curve) (human B7-H4 on cells) | binding result (rat B7-H4 on cells) | EC50 (read off the curve) (mouse B7-H4 on cells) | EC50 (read off the curve) [2]
1 | B1 | binds | – | – | – | –
2 | B2 | – | ~2 nM | binds | ~8 nM | ~5 nM
3 | B3 | binds | – | – | – | –

From patent publication US20200255528A1 (Five Prime, published 2020)
